Assay results reported in paper PMC7790460, “An RNA Repair Operon Regulated by Damaged tRNAs”.
Values joined by “and” are separate entries in the source; they are usually repeats but may differ in a detail not shown here. Equal values may be shown once.

Experiments:
[1] = target: RtcR transcriptional activator (full-length S. Typhimurium RtcR) (S. Typhimurium); assay: SEC; RtcR (48 uM) mixed with 48 uM refolded 5' tRNA-Leu(UAG) halves ending in 2',3'-cyclic phosphate; Superdex 200 Increase 10/300; 20 mM Tris-HCl pH 7.5, 100 mM NaCl, 1 mM MgCl2, 2% glycerol, 0.5% Tween 20, 1 mM ATP; peaks analysed by SDS-PAGE and denaturing gels
RtcR CARF domain = target: T1, RtcR CARF domain (Salmonella enterica serovar Typhimurium …, UniProt Q8ZLH7 1-188); assay: EMSA; 20 mM Tris-HCl pH 7.5, 50 mM NaCl, 1 mM MgCl2, 0.05% Tween 20; 1 mM ATP for RtcR; 30 min at 4 C then 30 min at room temperature; RNA 1 nM; conditions: protein: recombinant; chain copies: 2; label: 5'-32P (EMSA)
T1 sequence: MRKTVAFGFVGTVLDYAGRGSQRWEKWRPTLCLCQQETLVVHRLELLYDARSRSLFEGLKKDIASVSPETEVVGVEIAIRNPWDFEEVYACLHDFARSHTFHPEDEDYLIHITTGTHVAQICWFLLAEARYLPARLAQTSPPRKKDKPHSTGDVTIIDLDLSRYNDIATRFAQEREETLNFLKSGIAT

RtcR (full-length) = target: T2, RtcR (full-length) (Salmonella enterica serovar Typhimurium …, UniProt Q8ZLH7 1-527); assay: EMSA; 1 mM ATP; 20 mM Tris-HCl pH 7.5, 50 mM NaCl, 1 mM MgCl2, 0.05% Tween 20; 1 mM ATP for RtcR; 30 min at 4 C then 30 min at room temperature; RNA 1 nM; conditions: protein: recombinant; chain copies: 2; label: 5'-32P (EMSA)
T2 sequence: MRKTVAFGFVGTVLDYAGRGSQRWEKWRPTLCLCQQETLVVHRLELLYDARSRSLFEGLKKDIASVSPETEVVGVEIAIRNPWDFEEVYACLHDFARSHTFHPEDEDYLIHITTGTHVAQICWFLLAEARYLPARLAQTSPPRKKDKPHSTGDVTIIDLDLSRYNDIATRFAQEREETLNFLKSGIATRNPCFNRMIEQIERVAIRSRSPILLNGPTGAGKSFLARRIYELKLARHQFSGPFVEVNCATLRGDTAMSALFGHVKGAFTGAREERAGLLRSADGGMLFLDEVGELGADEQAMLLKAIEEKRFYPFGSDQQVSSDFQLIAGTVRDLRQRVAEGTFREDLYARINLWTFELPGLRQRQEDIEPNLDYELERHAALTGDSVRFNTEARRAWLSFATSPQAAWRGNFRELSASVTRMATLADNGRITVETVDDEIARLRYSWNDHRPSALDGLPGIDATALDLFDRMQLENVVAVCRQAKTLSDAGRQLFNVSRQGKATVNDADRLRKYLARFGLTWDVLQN

For “RtcR transcriptional activator (full-length S. Typhimurium RtcR) (natural protein)”, the stoichiometry N [1] was 6 and 2.

With GCGGGAGUGGCGAAAUUGGUAGACGCACCAGAUUUAG (structured_RNA, 2',3'-cyclic phosphate 3' end) [tRNALeu(UAG) 5' half, after G of anticodon, cyclic phosphate] the “apparent K (half saturation)” value (RtcR CARF domain) was about 200 nM and the “apparent K (half saturation)” value (RtcR (full-length)) was about 125 nM.

GCGGGAGUGGCGAAAUUGGUAGACGCACCAGAUUUAG (structured_RNA, 3'-phosphate) [tRNALeu(UAG) 5' half, after G of anticodon, 3'-phosphate]: no binding (RtcR CARF domain).
